# Patent publication US20210253713A1 (ABEXXA BIOLOGICS, published 2021)
# Assays:
# [1] = molecular target: T1, HLA-E/… (human, UniProt P13747 22-297; P61769 21-119, limits assumed); experiment: ELISA, antibody captured on Protein-A wells, soluble biotin-labeled HLA-E/peptide complex, SA-HRP
# T1 construct: Soluble biotin-labeled control complex; also called control HLA-E/peptide complex
# Protocol: (§1) The isolated scFv VL and VH domains were cloned into pFUSE-hIgG1-Fc and pFUSE2-CLIg-hk plasmids, respectively and plasmid DNA was prepared using standard protocol and used to co-transfect a 200 ml culture of Expi-293 cells. Following the manufacturer's instructions, supernatants were harvested at day 5 post-transfection for antibody purification using Protein-A coated beads. Next, the purified mouse-human chimeric IgG1 antibody, MAB-031 and the fully human antibody, MAB-036 were characterized for binding specificity and sensitivity by ELISA. In brief, Protein-A coated 96-wells were used to capture either MAB-031 or MAB-036 added to wells at a concentration of 10 ug/ml. After incubation for 60 min, wells were washed using PBS (pH 7.4)+0.1% Tween-20 and soluble biotin-labeled HLA-E/peptide complexes were added to individual wells at concentrations ranging from 0.25 to 0.0625 ug/ml. Wells were washed 3× using a solution of PBS+Tween-20 and then streptavidin-Horseradish peroxidase (SA-HRP) conjugate was added to wells and incubated for 30 min. One final wash was done and the substrate solution containing 3,3′,5,5′-tetramethylbenzidine (TMB) was added to wells and developed for 10 min before adding stop solution (0.16M sulfuric acid) to terminate the reaction.
# [2] = molecular target: T2, HLA-E/… (human, UniProt P13747 22-297; P61769 21-119, limits assumed); experiment: as above; remark: listed apart in the source
# T2 construct: Soluble biotin-labeled control complex; also called control HLA-E/peptide complex
# Protocol: as §1
# [3] = molecular target: T3, HLA-E/… (human, UniProt P13747 22-297; P61769 21-119, limits assumed); experiment: ELISA, biotin-labeled complex on neutravidin plates, soluble bivalent IgG1, anti-human-HRP
# T3 construct: Biotin-labeled control complex captured on neutravidin plates through a C-terminal BirA tag; also called control HLA-E/peptide complex
# Protocol: (§2) To further evaluate the binding specificity and detection sensitivity of MAB-031 and MAB-036, a second ELISA was performed. For this assay, neutravidin coated plates were used to capture biotin-labeled HLA-E/peptide complexes. Because the HLA-E/peptide complexes have a single biotin molecule conjugated to the c-terminal end BirA tag, the immobilization of these complexes results in having the molecules lined up in a homogenous directional orientation. After incubation, unbound biotin-labeled HLA-E/peptide complexes are removed by rinsing the plate in a PBS+tween-20 buffer solution. MAB31 and MAB36 were then added to wells at concentrations that ranged from 1 ug/ml to 0.0001 ug/ml. Incubation was carried out for 1 hr, wells were rinsed and bound MAB was detected using a 1:2500 dilution of a goat anti-human-HRP conjugate. The assay was developed by adding the TMB substrate solution was added to wells and developed for 10 min before adding stop solution to terminate the reaction.
# [4] = molecular target: T4, HLA-E/… (human, UniProt P13747 22-297; P61769 21-119, limits assumed); experiment: as above
# T4 construct: Biotin-labeled control complex, used in both ELISA formats; also called control HLA-E/peptide complex
# Protocol: as §2
# [5] = molecular target: T5, HLA-E/… (human, UniProt P13747 22-297; P61769 21-119, limits assumed); experiment: as above; remark: listed apart in the source
# T5 construct: Biotin-labeled control complex captured on neutravidin plates through a C-terminal BirA tag; also called control HLA-E/peptide complex
# Protocol: as §2
# [6] = molecular target: T6, HLA-E/… (human, UniProt P13747 22-297; P61769 21-119, limits assumed); experiment: as above; remark: listed apart in the source
# T6 construct: Biotin-labeled control complex captured on neutravidin plates through a C-terminal BirA tag; also called control HLA-E/peptide complex
# Protocol: as §2
# [7] = molecular target: T7, HLA-E/… (human, UniProt P13747 22-297; P61769 21-119, limits assumed); experiment: as above; remark: listed apart in the source
# T7 construct: Biotin-labeled control complex captured on neutravidin plates through a C-terminal BirA tag; also called control HLA-E/peptide complex
# Protocol: as §2
Binder,binding result [1],binding result [2],binding result [3],binding result [4],binding result [5],binding result [6],binding result [7]
"MAB-036 (anti-HLA-E/…) (antibody, V domains shown, Full-length human IgG1 (pFUSE vector system, human kappa); CDRs of R4Clone #1 mutated light chain were grafted onto trastuzumab VH and VL frameworks; also called MAB36) VH: EVQLVESGGGLVQPGGSLRLSCAASGFTFSSYAIHWVRQAPGKGLEWVARIAYGGGATRYADSVKGRFTISADTSKNTAYLQMNSLRAEDTAVYYCAKGLSNFDYWGQGTLVTVSS VL: DIQMTQSPSSLSASVGDRVTITCRASQSISSYLNWYQQKPGKAPKLLIYNAAFLYSGVPSRFSGSRSGTDFTLTISSLQPEDFATYYCQQAATYPATFGQGTKVEIK",no binding,no binding,no binding (tested: 1 ug/ml to 0.0001 ug/ml),no binding (tested: 1 ug/ml to 0.0001 ug/ml),no binding (tested: 1 ug/ml to 0.0001 ug/ml),no binding (tested: 1 ug/ml to 0.0001 ug/ml),no binding (tested: 1 ug/ml to 0.0001 ug/ml)
"MAB-031 (anti-HLA-E/…) (antibody, V domains shown, also called MAB31; MAB-31) VH: QVQLQQSGPELVKPGASVKMSCKASGYTFTDYVISWVKQRTGQGLEWIGEIYPGNNTTYYNDNFRGKATLTVDKSSSTAYMQLSSLTSEDSAVYYCARESLGIYYGSTYKGLYAMDYWGQGTTLTVSS VL: QIVLTQSPAIMSASPGEKVTITCSASSSVSYMHWFQQKPGTSPKLWIYSTSNLASGVPARFSGSGSGTSYSLTISRMEAEDAATYYCQQRSSYPPTFGAGTKLELKR",no binding,no binding,no binding (tested: 1 ug/ml to 0.0001 ug/ml),no binding (tested: 1 ug/ml to 0.0001 ug/ml),no binding (tested: 1 ug/ml to 0.0001 ug/ml),no binding (tested: 1 ug/ml to 0.0001 ug/ml),no binding (tested: 1 ug/ml to 0.0001 ug/ml)
